Assay results published in paper PMC9022034.

Target: T1, CBM3a (family IIIa carbohydrate binding module) of the cellulosomal scaffolding protein CipC (Clostridium cellulolyticum (Ruminiclostridium cellulolyticum) H10)
T1 chain: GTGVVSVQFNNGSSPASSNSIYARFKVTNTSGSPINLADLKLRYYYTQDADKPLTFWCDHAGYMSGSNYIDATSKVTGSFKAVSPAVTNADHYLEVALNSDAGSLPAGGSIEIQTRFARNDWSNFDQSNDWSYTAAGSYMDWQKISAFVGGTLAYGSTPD
Test: ITC
Conditions: domain or fragment; C-terminal His6 tag omitted. Limits not printed and no X2 feature in the entry: estimated from the CipC module order (CBM3a-X2-Coh1..7-X2-Coh8) and the ~95-aa X2 size (1EHX is the X2-N homologue). Both edges are uncertain by about 10 residues; the segment should contain the NGNT motif. Methods sometimes call this protein X2-N, but Results state X2-C was used in vitro. / C-terminal His6 tag omitted; modification not given

B1: X2-C module of the cellulosomal scaffolding protein CipC (protein)
chain: VGDVTPVNPTITPSTASFDKYVPANVNVTLTPNGNTFKGITGLTSGTDFTVSNNVVTISKSYLSTLAVGSKTLTFDFGVTNNPVLTLTITDSTPVV
B1 showed a Ka of 80200 M⁻¹.
